These results are taken from article PMC6590870.

Where “and” joins values, the source holds several entries; their conditions need not be identical. Identical values can stand only once.

The target in the test is Strep-HP1542 (bactofilin HP1542 of H. pylori reference strain 26695, N-terminal Strep-tagged version) (Helicobacter pylori strain 26695). In words: cross-linking; glutaraldehyde dilutions 10% to 0.01% added to strep-tagged protein, 10 min at 23°C; SDS-PAGE and immunoblotting. Background: Immunoblotting shows a protein as a band on a membrane.

For orientation: stoichiometry N means the number of molecules, sites or subunits per partner or assembly. As for “Strep-HP1542 (bactofilin HP1542 of H. pylori reference strain 26695, N-terminal Strep-tagged version) (natural protein)”, the stoichiometry N is 2 and 3.
